The text below walks through data of US20260124210A1.

The assay deals with mouse PD-L1 (surface receptor on LLC-JSP and 4T1 murine cancer cells) (mouse) (UniProt Q9EP73). As to the kind of experiment: flow cytometry uptake of dye-siRNA tagged p-iPLK1-NP by 4T1 cells, 1 h exposure (FIG. 11B).
mouse PD-L1 (surface receptor on LLC-JSP and 4T1 murine cancer cells) (mouse), sequence (Q9EP73 19-290): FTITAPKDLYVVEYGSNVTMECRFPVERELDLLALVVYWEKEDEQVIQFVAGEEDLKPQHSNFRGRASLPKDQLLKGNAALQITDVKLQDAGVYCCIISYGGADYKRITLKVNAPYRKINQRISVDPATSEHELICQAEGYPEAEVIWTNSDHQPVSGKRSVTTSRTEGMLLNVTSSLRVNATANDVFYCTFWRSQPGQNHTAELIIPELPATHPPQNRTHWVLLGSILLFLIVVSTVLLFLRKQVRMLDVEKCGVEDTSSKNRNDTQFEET

Substance “p-iPLK1-NP (mesoporous silica nanoparticle coated with PEI and PEG, loaded with PLK1 inhibitor volasertib and conjugated with mouse PD-L1 antibody)” showed a cellular uptake, PD-L1 high cells vs. PD-L1 low cells (fold) of 4 fold.
